Assay results published in article PMC3233575, “DC-SIGN Increases the Affinity of HIV-1 Envelope Glycoprotein Interaction with CD4” (PLoS ONE, 2011).

Target: the molecule itself
Assay: SEC; two tandem Superdex 200 3.2/30 PC columns, 100 mM Tris-HCl pH 7.9, 0.15 M NaCl, room temperature, about 50 µg refolded protein; monomer to oligomer equilibrium

B1: soluble recombinant DC-SIGN, entire extracellular domain (residues 70-404) (domain or fragment)
chain: EQSRQDAIYQNLTQLKAAVGELSEKSKLQEIYQELTQLKAAVGELPEKSKLQEIYQELTRLKAAVGELPEKSKLQEIYQELTWLKAAVGELPEKSKMQEIYQELTRLKAAVGELPEKSKQQEIYQELTRLKAAVGELPEKSKQQEIYQELTRLKAAVGELPEKSKQQEIYQELTQLKAAVERLCHPCPWEWTFFQGNCYFMSNSQRNWHDSITACKEVGAQLVVIKSAEEQNFLQLQSSRSNRFTWMGLSDLNQEGTWQWVDGSPLLPSFKQYWNRGEPNNVGEEDCAEFSGNGWNDDKCNLAKFWICKKSAASCSRDEEQFLSPAPATPNPPPA
notes: DC-SIGN, entire extracellular domain, residues 70-404 of GenBank NP_066978; cDNA of immature monocyte-derived dendritic cells; the sense primer carries an ATG before the first DC-SIGN codon; The preparation is a monomer:tetramer equilibrium (3.3:1 tetramer to monomer by SEC); the tetramer predominates. pET15b normally adds an N-terminal His6 tag with a thrombin site (surmised); no cleavage is …
stoichiometry N: 4
